# Data as given in patent publication US20220315554A1, “COMPOUNDS COMPRISING A […] LIGAND AND USE THEREOF” (priority 2019, published 2022).
# What was measured:
# [1] = target: Recombinant human DPP4 (R&D systems, #9168-SE) (human)
# [2] = target: recombinant human PREP (R&D systems, #4308-SE) (human)
# [3] = target: human fibroblast activation protein (FAP) on FAP-expressing human WI-38 fibroblasts (human); test: competition FACS, WI-38 cells, vs Cy5-labeled compound; D: pIC50 ≤6.0
# [4] = target: T1, Recombinant human FAP (R&D systems, #3715-SE) (human)
# T1 sequence: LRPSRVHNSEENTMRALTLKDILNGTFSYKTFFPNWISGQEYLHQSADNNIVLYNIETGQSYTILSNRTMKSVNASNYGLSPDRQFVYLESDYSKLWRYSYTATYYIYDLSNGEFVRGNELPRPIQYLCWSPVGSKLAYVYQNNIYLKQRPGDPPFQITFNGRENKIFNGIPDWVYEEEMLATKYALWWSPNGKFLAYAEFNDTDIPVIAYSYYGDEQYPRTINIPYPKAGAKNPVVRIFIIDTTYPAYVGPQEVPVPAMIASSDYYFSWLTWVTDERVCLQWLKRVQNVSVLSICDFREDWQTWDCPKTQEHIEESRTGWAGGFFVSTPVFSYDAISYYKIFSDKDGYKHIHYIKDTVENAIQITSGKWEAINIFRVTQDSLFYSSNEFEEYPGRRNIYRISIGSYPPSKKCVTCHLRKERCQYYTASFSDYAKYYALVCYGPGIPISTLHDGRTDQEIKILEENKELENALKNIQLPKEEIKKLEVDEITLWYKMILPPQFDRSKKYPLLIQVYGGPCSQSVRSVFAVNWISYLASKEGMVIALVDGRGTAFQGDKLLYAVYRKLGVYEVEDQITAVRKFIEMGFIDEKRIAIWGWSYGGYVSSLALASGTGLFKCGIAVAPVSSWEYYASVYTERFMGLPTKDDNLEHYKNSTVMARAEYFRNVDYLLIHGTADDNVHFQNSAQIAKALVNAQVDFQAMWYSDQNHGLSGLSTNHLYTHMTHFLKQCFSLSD
# [5] = target: Acetylcholinesterase (h) (human (printed (h))) (UniProt P22303)
# [6] = target: COX1(h) (human (printed (h))) (UniProt P23219)
# [7] = target: T2, COX2(h) (human (printed (h))) (UniProt P35354)
# T2 sequence: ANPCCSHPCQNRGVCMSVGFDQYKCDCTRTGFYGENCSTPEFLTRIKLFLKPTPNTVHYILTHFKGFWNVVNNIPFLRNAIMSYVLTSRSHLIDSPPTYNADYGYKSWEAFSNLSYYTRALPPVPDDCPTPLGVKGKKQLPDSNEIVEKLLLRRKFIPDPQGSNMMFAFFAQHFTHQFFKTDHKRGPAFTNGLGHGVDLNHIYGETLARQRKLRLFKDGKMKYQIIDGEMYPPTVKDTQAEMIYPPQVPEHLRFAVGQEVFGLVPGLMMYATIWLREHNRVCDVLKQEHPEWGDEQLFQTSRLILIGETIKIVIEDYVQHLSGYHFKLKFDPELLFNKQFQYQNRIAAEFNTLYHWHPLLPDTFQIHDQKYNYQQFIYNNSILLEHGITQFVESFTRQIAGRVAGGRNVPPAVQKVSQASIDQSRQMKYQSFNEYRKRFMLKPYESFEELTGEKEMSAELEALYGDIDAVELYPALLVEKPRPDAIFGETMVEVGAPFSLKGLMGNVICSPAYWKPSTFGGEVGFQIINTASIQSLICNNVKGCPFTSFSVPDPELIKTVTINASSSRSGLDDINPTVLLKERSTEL
# [8] = target: Lck kinase (h) (human (printed (h))) (UniProt P06239)
# [9] = target: PDE3A (h) (human (printed (h))) (UniProt Q14432)
# [10] = target: PDE4D2 (h) (human (printed (h))) (UniProt Q08499)
# BZD (central) = test: radioligand displacement, 10 uM compound
# [11] = target: Ca2+ channel (L, dihydropyridine site); test: radioligand displacement, 10 uM compound
# KV channel = test: radioligand displacement, 10 uM compound
# MAO-A = test: radioligand displacement, 10 uM compound
# NMDA = test: radioligand displacement, 10 uM compound
# Na+ channel (site 2) = test: radioligand displacement, 10 uM compound
# [12] = target: human fibroblast activation protein (FAP) on FAP-expressing human WI-38 fibroblasts (human); test: competition FACS, WI-38 cells, vs Cy5-labeled compound; A: pIC50 >8.0
# Acetylcholinesterase (h) (human (printed (h))), sequence (P22303 32-614 limits assumed): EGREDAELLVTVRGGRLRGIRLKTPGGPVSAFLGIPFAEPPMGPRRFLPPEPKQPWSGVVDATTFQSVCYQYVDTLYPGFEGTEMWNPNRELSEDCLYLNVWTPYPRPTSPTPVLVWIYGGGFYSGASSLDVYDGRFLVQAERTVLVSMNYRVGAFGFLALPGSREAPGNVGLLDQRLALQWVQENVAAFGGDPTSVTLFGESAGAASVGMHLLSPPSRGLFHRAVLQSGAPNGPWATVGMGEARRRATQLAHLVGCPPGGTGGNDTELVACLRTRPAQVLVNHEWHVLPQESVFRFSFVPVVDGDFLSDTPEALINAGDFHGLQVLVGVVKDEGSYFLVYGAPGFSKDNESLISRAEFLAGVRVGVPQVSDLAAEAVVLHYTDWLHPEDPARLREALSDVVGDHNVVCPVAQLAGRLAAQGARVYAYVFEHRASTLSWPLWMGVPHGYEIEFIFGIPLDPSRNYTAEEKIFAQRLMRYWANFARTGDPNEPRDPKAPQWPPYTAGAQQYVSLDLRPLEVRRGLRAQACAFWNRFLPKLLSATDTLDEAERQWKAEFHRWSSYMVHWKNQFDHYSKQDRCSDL
# COX1(h) (human (printed (h))), sequence (P23219 24-599 limits assumed): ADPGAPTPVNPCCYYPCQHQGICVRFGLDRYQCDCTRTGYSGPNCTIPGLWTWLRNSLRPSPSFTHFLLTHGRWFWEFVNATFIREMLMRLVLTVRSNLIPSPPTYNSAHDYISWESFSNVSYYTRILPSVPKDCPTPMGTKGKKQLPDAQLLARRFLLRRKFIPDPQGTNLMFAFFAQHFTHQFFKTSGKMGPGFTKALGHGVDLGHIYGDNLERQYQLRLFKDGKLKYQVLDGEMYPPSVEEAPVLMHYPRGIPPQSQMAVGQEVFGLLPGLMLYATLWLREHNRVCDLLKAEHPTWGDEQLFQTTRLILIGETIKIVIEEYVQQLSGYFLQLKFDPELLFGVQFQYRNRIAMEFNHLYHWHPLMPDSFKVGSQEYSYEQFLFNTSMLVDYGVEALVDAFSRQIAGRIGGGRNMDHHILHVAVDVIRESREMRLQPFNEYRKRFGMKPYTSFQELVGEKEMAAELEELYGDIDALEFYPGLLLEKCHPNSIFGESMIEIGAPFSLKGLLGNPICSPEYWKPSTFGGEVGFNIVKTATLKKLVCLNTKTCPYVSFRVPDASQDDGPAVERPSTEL
# PDE4D2 (h) (human (printed (h))), sequence (Q08499 303-809): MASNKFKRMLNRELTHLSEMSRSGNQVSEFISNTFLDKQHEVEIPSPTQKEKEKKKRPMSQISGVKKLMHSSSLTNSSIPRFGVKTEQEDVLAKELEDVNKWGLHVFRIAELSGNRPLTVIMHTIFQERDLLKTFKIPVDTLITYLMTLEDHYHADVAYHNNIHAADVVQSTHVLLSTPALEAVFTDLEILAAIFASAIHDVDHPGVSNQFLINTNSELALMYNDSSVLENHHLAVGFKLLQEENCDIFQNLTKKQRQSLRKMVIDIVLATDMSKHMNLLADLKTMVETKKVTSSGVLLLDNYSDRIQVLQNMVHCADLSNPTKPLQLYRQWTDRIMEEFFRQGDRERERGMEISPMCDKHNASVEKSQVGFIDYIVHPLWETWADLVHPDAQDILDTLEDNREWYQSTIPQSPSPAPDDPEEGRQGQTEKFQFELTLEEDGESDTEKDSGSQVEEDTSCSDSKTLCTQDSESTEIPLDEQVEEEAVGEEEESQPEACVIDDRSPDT
substance,measurement,setting,value
DOTA-Ttds-Nle-[Cys(3MeBn)-Pro-Pro-Thr-Glu-Phe-Cys]-Asp-NH2 (3BP-3320) (peptide),pIC50 (DPP4),[1],< 6 pIC50
same,pIC50 (PREP),[2],< 6 pIC50
Hex-[Cys(3MeBn)-Pro-4Dfp-Thr-Glu-Phe-Cys]-NH2 (peptide),pIC50 Category (FACS),[3],< 6 pIC50
Hex-[Cys(3MeBn)-Pro-Pro-Thr-Glu-Phe-Cys]-Asp-His-Phe-Arg-Asp-Ttds-Lys(DOTA)-NH2 (3BP-3105) (peptide),pIC50 (DPP4),[1],< 6 pIC50
same,pIC50 (PREP),[2],< 6 pIC50
Hex-[Cys(3MeBn)-Pro-Pro-Thr-Glu-Nmf-Cys]-NH2 (peptide),pIC50 Category (FACS),[3],< 6 pIC50
Hex-[Cys(3MeBn)-Pro-Pro-Thr-Gln-Phe-Cys]-Bhk(DOTA)-OH (3BP-3397) (peptide),pIC50 (DPP4),[1],< 6 pIC50
same,pIC50 (PREP),[2],< 6 pIC50
Hex-[Cys(3MeBn)-Pro-Pro-Thr-Glu-Tic-Cys]-NH2 (peptide),pIC50 Category (FACS),[3],< 6 pIC50
Hex-[Cys(3MeBn)-Pro-Pro-Thr-Glu-Phe-Pen]-NH2 (peptide),pIC50 Category (FACS),[3],< 6 pIC50
DOTA-Ttds-Hci-[Cys(3MeBn)-Pro-Pro-Thr-Gln-Phe-Cys]-Bal-OH (peptide),pIC50 Category (Activity),[4],< 6 pIC50
same,pIC50 Category (FACS),[3],< 6 pIC50
H-Met-[Cys(3MeBn)-Pro-Pro-Thr-Glu-Phe-Cys]-Asp-His-Phe-Arg-Asp-Ttds-Lys(Bio)-NH2 (3BP-2881) (peptide),pIC50 (DPP4),[1],< 6 pIC50
same,pIC50 (PREP),[2],< 6 pIC50
Hex-[Cys(3MeBn)-Pro-Pro-Thr-Glu-Nphe-Cys]-NH2 (peptide),pIC50 Category (Activity),[4],< 6 pIC50
same,pIC50 Category (FACS),[3],< 6 pIC50
Hex-[Cys(3MeBn)-Pro-Pro-Opc-Glu-Phe-Cys]-NH2 (peptide),pIC50 Category (FACS),[3],< 6 pIC50
Hex-[Cys(3MeBn)-Pro-Pro-Orn(Ac)-Glu-Phe-Cys]-NH2 (peptide),pIC50 Category (FACS),[3],< 6 pIC50
Hex-[Cys(3MeBn)-Pro-Pro-Thr-Glu-Phe-Cys]-Asp-His-Nmf-Arg-Ttds-Lys(DOTA)-NH2 (3BP-3275) (peptide),pIC50 (DPP4),[1],< 6 pIC50
same,pIC50 (PREP),[2],< 6 pIC50
Hex-[Cys(3MeBn)-Pro-Pro-Thr-Moo-Phe-Cys]-NH2 (peptide),pIC50 Category (Activity),[4],< 6 pIC50
same,pIC50 Category (FACS),[3],< 6 pIC50
DOTA-Ttds-Nle-[Cys(3MeBn)-Pro-Pro-Thr-Glu-Phe-Cys]-NH2 (3BP-3319) (peptide),pIC50 (DPP4),[1],< 6 pIC50
same,pIC50 (PREP),[2],6.2 pIC50
DOTA-Ttds-Hgl-[Cys(3MeBn)-Pro-Pro-Thr-Gln-Phe-Cys]-Bal-OH (peptide),pIC50 Category (FACS),[3],< 6 pIC50
DOTA-Ttds-Nle-[Cys(3MeBn)-Pro-Pro-Thr-Glu-Phe-Cys]-Asp-Pamb-Arg-NH2 (3BP-3321) (peptide),pIC50 (DPP4),[1],< 6 pIC50
same,pIC50 (PREP),[2],< 6 pIC50
Hex-[Cys(tMeBn(DOTA-AET))-Pro-Pro-Thr-Gln-Phe-Cys]-OH (3BP-3554) (peptide),% inhibition of control enzyme activity,[5],1%
same,% inhibition of control enzyme activity,[6],8%
same,% inhibition of control enzyme activity,[7],-22%
same,% inhibition of control enzyme activity,[8],-4%
same,% inhibition of control enzyme activity,[9],-37%
same,% inhibition of control enzyme activity,[10],-4%
same,% Inhibition of Specific Binding,BZD (central),5%
same,% Inhibition of Specific Binding,[11],54%
same,% Inhibition of Specific Binding,KV channel,4%
same,% Inhibition of Specific Binding,MAO-A,-25%
same,% Inhibition of Specific Binding,NMDA,1%
same,% Inhibition of Specific Binding,Na+ channel (site 2),14%
Ac-Met-[Cys(3MeBn)-Pro-Pro-Thr-Glu-Phe-Cys]-Asp-His-Phe-Arg-asp-NH2 (peptide),pIC50 Category (Activity),[4],> 8 pIC50
same,pIC50 Category (FACS),[12],> 8 pIC50
Hex-[Cys(3MeBn)-Pro-Pro-Thr-Glu-Bip-Cys]-NH2 (peptide),pIC50 Category (Activity),[4],< 6 pIC50
same,pIC50 Category (FACS),[3],< 6 pIC50
Hex-[Cys(3MeBn)-Pro-Pro-Thr-Gln-Phe-Cys]-Asp-Ttds-Lys(DOTA)-NH2 (peptide),pIC50 Category (Activity),[4],> 8 pIC50
same,pIC50 Category (FACS),[12],> 8 pIC50
Ac-Met-[Cys(3MeBn)-Gly-Pro-Thr-Glu-Phe-Cys]-Asp-His-Phe-Arg-Asp-NH2 (peptide),pIC50 Category (Activity),[4],> 8 pIC50
same,pIC50 Category (FACS),[12],> 8 pIC50
Hex-[Cys(3MeBn)-Pro-Eay-Thr-Glu-Phe-Cys]-NH2 (peptide),pIC50 Category (FACS),[3],< 6 pIC50
H-Met-[Cys(3MeBn)-Pro-Pro-Thr-Glu-Phe-Cys]-Asp-His-Phe-Arg-Asp-Ttds-Lys(Bio)-NH2 (peptide),pIC50 Category (Activity),[4],> 8 pIC50
same,pIC50 Category (FACS),[12],> 8 pIC50
Hex-[Cys(3MeBn)-Pro-Tap-Thr-Glu-Phe-Cys]-NH2 (peptide),pIC50 Category (FACS),[3],< 6 pIC50
DOTA-Ttds-Nle-[Cys(3MeBn)-Pro-Pro-Thr-Gln-Phe-Cys]-Bal-OH (3BP-3398) (peptide),pIC50 (DPP4),[1],< 6 pIC50
same,pIC50 (PREP),[2],< 6 pIC50
Hex-[Cys(3MeBn)-Pro-Pro-Thr-Gln-Phe-Cys]-Bhk(DOTA-Ttds)-OH (peptide),pIC50 Category (Activity),[4],> 8 pIC50
same,pIC50 Category (FACS),[12],> 8 pIC50
Ac-Met-[Cys(3MeBn)-Pro-Pro-Thr-Glu-Phe-Cys]-Asp-His-Ppa-Arg-Asp-NH2 (peptide),pIC50 Category (Activity),[4],> 8 pIC50
same,pIC50 Category (FACS),[12],> 8 pIC50
Hex-[Cys(tMeBn(DOTA-AET))-Pro-Pro-Thr-Gln-Phe-Cys]-Gly-OH (peptide),pIC50 Category (Activity),[4],> 8 pIC50
same,pIC50 Category (FACS),[12],> 8 pIC50
Hex-[Cys(3MeBn)-Pro-Pro-Thr-Glu-Phe-Cys]-Asp-Arg-NH2 (peptide),pIC50 Category (Activity),[4],> 8 pIC50
same,pIC50 Category (FACS),[12],> 8 pIC50
[3MeBn-Spa-Pro-Pro-Thr-Gln-Phe-Cys]-Asp-NH2 (3BP-3419) (peptide),pIC50 (DPP4),[1],< 6 pIC50
same,pIC50 (PREP),[2],< 6 pIC50
DOTA-Ttds-Nle-[Cys(3MeBn)-Pro-Pro-Thr-Glu-Phe-Cys]-Asp-His-Phe-Arg-Asp-NH2 (3BP-3168) (peptide),pIC50 (DPP4),[1],< 6 pIC50
same,pIC50 (PREP),[2],< 6 pIC50
Ac-Met-[cys(3MeBn)-Pro-Pro-Thr-Glu-Phe-Cys]-Asp-His-Phe-Arg-Asp-NH2 (peptide),pIC50 Category (Activity),[4],> 8 pIC50
same,pIC50 Category (FACS),[12],> 8 pIC50
Hex-[Cys(tMeBn(DOTA-AET))-Pro-Pro-Thr-Gln-Phe-Cys]-Bhf-OH (peptide),pIC50 Category (Activity),[4],> 8 pIC50
same,pIC50 Category (FACS),[12],> 8 pIC50
Hex-[Cys(3MeBn)-Pro-Pro-Thr-Nme-Phe-Cys]-NH2 (peptide),pIC50 Category (Activity),[4],< 6 pIC50
same,pIC50 Category (FACS),[3],< 6 pIC50
